In paper PMC9313131:

Key:
[1] = biological target: CDC37 (cell division cycle 37), wild type, full-length (human) (UniProt Q16543); test: ITC; in most cases sBRAF construct at 350 μM injected into 30 μM CDC37 at 20 °C; 20 mM Tris pH 7.5, 1 mM EDTA, 200 mM NaCl; ITC200
[2] = biological target: sBRAF L597R (human) (UniProt P15056); test: SEC; Superdex 200 Increase 10/300 GL; 50 mM HEPES pH 7.5, 300 mM NaCl, 0.5 mM TCEP, 1 mM EDTA; relative molecular mass against gel-filtration standards

Sequence of CDC37 (cell division cycle 37), wild type, full-length (human) (Q16543 whole entry): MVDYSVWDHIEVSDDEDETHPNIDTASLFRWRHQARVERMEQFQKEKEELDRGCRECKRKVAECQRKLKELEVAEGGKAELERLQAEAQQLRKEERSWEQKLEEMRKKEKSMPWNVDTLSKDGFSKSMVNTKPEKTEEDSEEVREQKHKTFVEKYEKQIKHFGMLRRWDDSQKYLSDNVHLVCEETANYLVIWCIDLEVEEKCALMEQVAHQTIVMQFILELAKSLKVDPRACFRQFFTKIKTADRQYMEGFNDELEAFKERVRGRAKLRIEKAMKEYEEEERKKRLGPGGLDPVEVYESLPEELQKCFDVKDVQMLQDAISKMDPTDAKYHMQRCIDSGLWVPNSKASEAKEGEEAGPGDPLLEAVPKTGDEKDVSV

| Substance | Kd [1] | stoichiometry N [2] |
| --- | --- | --- |
| sBRAF D594V (from UniProt P15056 423-723) (domain or fragment) | 1200 nM |  |
| sBRAF F595A (from UniProt P15056 423-723) (domain or fragment) | 500 nM |  |
| sBRAF F595V (from UniProt P15056 423-723) (domain or fragment) | 1400 nM |  |
| sBRAF L597R (from UniProt P15056 423-723) (domain or fragment) |  | 2 |
| sBRAF T599E-V600E-S602D (from UniProt P15056 423-723) (domain or fragment) | 470 nM |  |
| sBRAF, solubilized version of BRAF kinase domain (residues 423-723), V600 background (from UniProt P15056 423-723) (domain or fragment) | 1000 nM |  |

Now from value to substance:

| Kd [1] | stoichiometry N [2] | Substance |
| --- | --- | --- |
| 230 nM |  | sBRAF L597A (from UniProt P15056 423-723) (domain or fragment) |
| 340 nM |  | sBRAF L597R-V600E (from UniProt P15056 423-723) (domain or fragment) |
| 230 nM |  | sBRAF T599W-V600E (from UniProt P15056 423-723) (domain or fragment) |
